Where two headings read alike, the source gives them in different places.
Key:
[1] = biological target: human carbonic anhydrase XII, catalytic domain (human); assay: other fluorescence titration
[2] = biological target: human carbonic anhydrase XII, catalytic domain (human)

Kd [1]: 6 µM
Kd [2]: 3.3 µM
Substance: polylysine (peptide)

— paper PMC3181075
